Numbering of substitutions follows the chain as printed.
T1: Recombinant Human IL-17 (human, UniProt Q16552 20-155, limits assumed)
T1 construct: bought reagent
T1 sequence (looked up): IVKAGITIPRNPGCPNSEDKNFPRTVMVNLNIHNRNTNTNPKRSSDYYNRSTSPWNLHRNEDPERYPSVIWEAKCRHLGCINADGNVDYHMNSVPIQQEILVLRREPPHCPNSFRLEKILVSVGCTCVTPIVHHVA

B1: DVD1629 (bispecific antibody, human IgG1, kappa)
heavy: not shown
light: DIQMTQSPSSLSASVGDRVTITCRASGNIHNYLTWYQQTPGKAPKLLIYNAKTLADGVPSRFSGSGSGTDYTFTISSLQPEDIATYYCQHFWSIPYTFGQGTKLQITRTVAAPEIVLTQSPDFQSVTPKEKVTITCRASQDIGSELHWYQQKPDQPPKLLIKYASHSTSGVPSRFSGSGSGTDFTLTINGLEAEDAGTYYCHQTDSLPYTFGPGTKVDIKRTVAAPSVFIFPPSDEQLKSGTASVVCLLNNFYPREAKVQWKVDNALQSGNSQESVTEQDSKDSTYSLSSTLTLSKADYEKHKVYACEVTHQGLSSPVTKSFNRGEC
notes: V1 wt hIgG1, V2 kappa; also called DVD1629H; DVD1629L
B2: DVD1631 (bispecific antibody, human IgG1, kappa)
heavy: not shown
light: B1 light
notes: V1 wt hIgG1, V2 kappa; also called DVD1631H; DVD1631L
B3: DVD1623 (bispecific antibody, human IgG1, kappa)
heavy: not shown
light: DTQVTQSPSSLSASVGDRVTITCITSTDIDVDMNWYQQKPGKPPKLLISQGNTLRPGVPSRFSSSGSGTDFTFTISSLQPEDFATYYCLQSDNLPLTFGQGTKLEIKRTVAAPDIQMTQSPSSLSASVGDRVTITCRASSGIISYIDWFQQKPGKAPKRLIYATFDLASGVPSRFSGSGSGTDYTLTISSLQPEDFATYYCRQVGSYPETFGQGTKLEIKRTVAAPSVFIFPPSDEQLKSGTASVVCLLNNFYPREAKVQWKVDNALQSGNSQESVTEQDSKDSTYSLSSTLTLSKADYEKHKVYACEVTHQGLSSPVTKSFNRGEC
notes: DVD-Ig, outer AB270, inner AB273, linker set 3; V1 wt hIgG1, V2 kappa; also called DVD1623H; DVD1623L
B4: DVD1627 (bispecific antibody, human IgG1, kappa)
heavy: not shown
light: B3 light with D1E, Q3T
notes: DVD-Ig, outer AB272, inner AB273, linker set 3; V1 wt hIgG1, V2 kappa; also called DVD1627H; DVD1627L
B5: DVD1605 (bispecific antibody, human IgG1, kappa)
heavy: not shown
light: DTVVTQSPAFLSVTPGEKVTITCITSTDIDVDMNWYQQKPDQPPKLLISQGNTLRPGVPSRFSSSGSGTDFTFTISSLEAEDAATYYCLQSDNLPLTFGQGTKLEIKRTVAAPSVFIFPPEIVLTQSPDFQSVTPKEKVTITCRASQDIGSELHWYQQKPDQPPKLLIKYASHSTSGVPSRFSGSGSGTDFTLTINGLEAEDAGTYYCHQTDSLPYTFGPGTKVDIKRTVAAPSVFIFPPSDEQLKSGTASVVCLLNNFYPREAKVQWKVDNALQSGNSQESVTEQDSKDSTYSLSSTLTLSKADYEKHKVYACEVTHQGLSSPVTKSFNRGEC
notes: DVD-Ig, outer AB271, inner AB274, linker set 2; V1 wt hIgG1, V2 kappa; also called DVD1605H; DVD1605L
B6: DVD1615 (bispecific antibody, human IgG1, kappa)
heavy: not shown
light: B5 light with D148N, P163S, T175I, G204A, T211S, S213T, Y216H, P220Q
notes: DVD-Ig, outer AB271, inner AB275, linker set 2; V1 wt hIgG1, V2 kappa; also called DVD1615H; DVD1615L
B7: DVD1603 (bispecific antibody, human IgG1, kappa)
heavy: not shown
light: DTQVTQSPSSLSASVGDRVTITCITSTDIDVDMNWYQQKPGKPPKLLISQGNTLRPGVPSRFSSSGSGTDFTFTISSLQPEDFATYYCLQSDNLPLTFGQGTKLEIKRTVAAPSVFIFPPEIVLTQSPDFQSVTPKEKVTITCRASQDIGSELHWYQQKPDQPPKLLIKYASHSTSGVPSRFSGSGSGTDFTLTINGLEAEDAGTYYCHQTDSLPYTFGPGTKVDIKRTVAAPSVFIFPPSDEQLKSGTASVVCLLNNFYPREAKVQWKVDNALQSGNSQESVTEQDSKDSTYSLSSTLTLSKADYEKHKVYACEVTHQGLSSPVTKSFNRGEC
notes: DVD-Ig, outer AB270, inner AB274, linker set 2; V1 wt hIgG1, V2 kappa; also called DVD1603H; DVD1603L
B8: DVD1613 (bispecific antibody, human IgG1, kappa)
heavy: not shown
light: B7 light with D148N, P163S, T175I, G204A, T211S, S213T, Y216H, P220Q
notes: DVD-Ig, outer AB270, inner AB275, linker set 2; V1 wt hIgG1, V2 kappa; also called DVD1613H; DVD1613L
B9: DVD1625 (bispecific antibody, human IgG1, kappa)
heavy: not shown
light: DTVVTQSPAFLSVTPGEKVTITCITSTDIDVDMNWYQQKPDQPPKLLISQGNTLRPGVPSRFSSSGSGTDFTFTISSLEAEDAATYYCLQSDNLPLTFGQGTKLEIKRTVAAPDIQMTQSPSSLSASVGDRVTITCRASSGIISYIDWFQQKPGKAPKRLIYATFDLASGVPSRFSGSGSGTDYTLTISSLQPEDFATYYCRQVGSYPETFGQGTKLEIKRTVAAPSVFIFPPSDEQLKSGTASVVCLLNNFYPREAKVQWKVDNALQSGNSQESVTEQDSKDSTYSLSSTLTLSKADYEKHKVYACEVTHQGLSSPVTKSFNRGEC
notes: DVD-Ig, outer AB271, inner AB273, linker set 3; V1 wt hIgG1, V2 kappa; also called DVD1625H; DVD1625L
B10: DVD1597 (bispecific antibody, human IgG1, kappa)
heavy: not shown
light: ETTVTQSPSSLSASVGDRVTITCITSTDIDVDMNWYQQKPGKPPKLLISQGNTLRPGVPSRFSSSGSGTDFTFTISSLQPEDFATYYCLQSDNLPLTFGQGTKLEIKRTVAAPSVFIFPPDIQMTQSPSSLSASVGDRVTITCRASSGIISYIDWFQQKPGKAPKRLIYATFDLASGVPSRFSGSGSGTDYTLTISSLQPEDFATYYCRQVGSYPETFGQGTKLEIKRTVAAPSVFIFPPSDEQLKSGTASVVCLLNNFYPREAKVQWKVDNALQSGNSQESVTEQDSKDSTYSLSSTLTLSKADYEKHKVYACEVTHQGLSSPVTKSFNRGEC
notes: DVD-Ig, outer AB272, inner AB273, linker set 2; V1 wt hIgG1, V2 kappa; also called DVD1597H; DVD1597L
B11: DVD1599 (bispecific antibody, human IgG1, kappa)
heavy: not shown
light: DIQMTQSPSSLSASVGDRVTITCRASGNIHNYLTWYQQTPGKAPKLLIYNAKTLADGVPSRFSGSGSGTDYTFTISSLQPEDIATYYCQHFWSIPYTFGQGTKLQITRTVAAPSVFIFPPEIVLTQSPDFQSVTPKEKVTITCRASQDIGSELHWYQQKPDQPPKLLIKYASHSTSGVPSRFSGSGSGTDFTLTINGLEAEDAGTYYCHQTDSLPYTFGPGTKVDIKRTVAAPSVFIFPPSDEQLKSGTASVVCLLNNFYPREAKVQWKVDNALQSGNSQESVTEQDSKDSTYSLSSTLTLSKADYEKHKVYACEVTHQGLSSPVTKSFNRGEC
notes: V1 wt hIgG1, V2 kappa; also called DVD1599H; DVD1599L
B12: DVD1609 (bispecific antibody, human IgG1, kappa)
heavy: not shown
light: B11 light with D148N, P163S, T175I, G204A, T211S, S213T, Y216H, P220Q
notes: V1 wt hIgG1, V2 kappa; also called DVD1609H; DVD1609L
B13: DVD1611 (bispecific antibody, human IgG1, kappa)
heavy: not shown
light: B11 light with D148N, P163S, T175I, G204A, T211S, S213T, Y216H, P220Q
notes: V1 wt hIgG1, V2 kappa; also called DVD1611H; DVD1611L
B14: DVD1601 (bispecific antibody, human IgG1, kappa)
heavy: not shown
light: B11 light
notes: V1 wt hIgG1, V2 kappa; also called DVD1601H; DVD1601L

target: T1, Recombinant Human IL-17; experiment: Biacore SPR; C-terminal VD
Method in brief: (§1)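 First, goat anti-mouse IgG was immobilized on a CM5 chip by amine coupling. Next, test antibody or DVD-Ig (25 μg/ml) was captured. Then antigen at 10−200 nM flowed over at 25 μl/min, 25° C. Finally, association and dissociation phases were globally fitted to a 1:1 model.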

Row | Kd | koff | kon | Binder
1 | ≤ 0.11 pM | < 1e-06 s⁻¹ | 1.4e+06 M⁻¹ s⁻¹ | B1
2 | ≤ 0.14 pM | < 1e-06 s⁻¹ | 250000 M⁻¹ s⁻¹ | B2
3 | ≤ 0.034 pM | < 1e-06 s⁻¹ | 230000 M⁻¹ s⁻¹ | B3
4 | 8.4 pM | 1.7e-06 s⁻¹ | 200000 M⁻¹ s⁻¹ | B4
5 | ≤ 0.068 pM | < 1e-06 s⁻¹ | 410000 M⁻¹ s⁻¹ | B5
6 | 150 pM | 6e-05 s⁻¹ | 390000 M⁻¹ s⁻¹ | B6
7 | ≤ 0.27 pM | < 1e-06 s⁻¹ | 310000 M⁻¹ s⁻¹ | B7
8 | ≤ 0.15 pM | < 1e-06 s⁻¹ | 360000 M⁻¹ s⁻¹ | B8
9 | 5.1 pM | 3.2e-06 s⁻¹ | 630000 M⁻¹ s⁻¹ | B9
10 | 12 pM | 4.1e-06 s⁻¹ | 350000 M⁻¹ s⁻¹ | B10
11 | ≤ 0.074 pM | < 1e-06 s⁻¹ | 120000 M⁻¹ s⁻¹ | B11
12 | ≤ 0.84 pM | < 1e-06 s⁻¹ | 89000 M⁻¹ s⁻¹ | B12
13 | 15 pM | 6e-05 s⁻¹ | 4.1e+06 M⁻¹ s⁻¹ | B13
14 | ≤ 0.12 pM | < 1e-06 s⁻¹ | 120000 M⁻¹ s⁻¹ | B14

target: T2, Recombinant Human IL-1β (human, UniProt P01584 117-269); experiment: Biacore SPR; N-terminal VD
T2 construct: bought reagent; also called IL-1B
Method in brief: as §1

Row | Kd | koff | kon | Binder
15 | 39 pM | 7.3e-05 s⁻¹ | 1.9e+06 M⁻¹ s⁻¹ | B1
16 | 17 pM | 2.2e-05 s⁻¹ | 1.3e+06 M⁻¹ s⁻¹ | B2
17 | 75 pM | 0.00049 s⁻¹ | 6.6e+06 M⁻¹ s⁻¹ | B3
18 | 86 pM | 0.00059 s⁻¹ | 6.8e+06 M⁻¹ s⁻¹ | B4
19 | 59 pM | 0.0005 s⁻¹ | 8.6e+06 M⁻¹ s⁻¹ | B5
20 | 55 pM | 0.00055 s⁻¹ | 9.9e+06 M⁻¹ s⁻¹ | B6
21 | 69 pM | 0.00048 s⁻¹ | 6.9e+06 M⁻¹ s⁻¹ | B7
22 | 59 pM | 0.00046 s⁻¹ | 7.8e+06 M⁻¹ s⁻¹ | B8
23 | 63 pM | 0.00054 s⁻¹ | 8.6e+06 M⁻¹ s⁻¹ | B9
24 | 75 pM | 0.00063 s⁻¹ | 8.4e+06 M⁻¹ s⁻¹ | B10
25 | 21 pM | 4.1e-05 s⁻¹ | 2e+06 M⁻¹ s⁻¹ | B11
26 | 22 pM | 4.6e-05 s⁻¹ | 2.1e+06 M⁻¹ s⁻¹ | B12
27 | 420 pM | 0.00013 s⁻¹ | 310000 M⁻¹ s⁻¹ | B13
28 | 16 pM | 2e-05 s⁻¹ | 1.2e+06 M⁻¹ s⁻¹ | B14
